# ± gives the uncertainty stated by the source.
# Assay: amyloid nucleation score (Sup35N fusion, yeast selection) (log enrichment); library NNK3; higher = more nucleation; inactive = no reads after selection
# Method in brief: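 On medium lacking adenine and uracil, psi-negative yeast expressing peptides of 20 random codons fused to Sup35N were grown 7 days at 30°C after a 24-hour induction with 100 μM copper sulfate. Illumina sequencing of input and output plasmid inserts gave the reads, and sequences under 100 input reads were excluded. The nucleation score is the DiMSum log enrichment of output over input reads, centred on the mode score of non-aggregating sequences.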
row,Substance,amyloid nucleation score
1,LFLFESQTCDSRVQNCISFG,inactive
2,LFLGLIVVGTVLNELSMTNA,inactive
3,LFLVYGGYIFAQRKFAFNSS,inactive
4,LFMCMIFDCDIRIVNSVGCI,1.43 ± 0.14
5,LFNYLFLVP,inactive
6,LFPYMDCNSGTELFYGFIVQ,inactive
7,LFSMEKGEYGNRRGYAVYFL,1.74 ± 0.084
8,LFSNTRVSSGYRSRLLSRCL,inactive
9,LFSQAHGYRDVLGGFRVFWV,inactive
10,LFSSRYDLIDVNVRGVDYSQ,inactive
11,LFTSFYVSPYM,inactive
12,LFVIHAGMNSTSFFKNMMSC,inactive
13,LFVIYISDIAPTGYQVQNDI,inactive
14,LFVKMR,-0.219 ± 0.32
15,LFVMGRFVSFALFTWKTDNV,inactive
16,LFYGHVNLASYRVSNRSKTR,inactive
17,LGCSVTTVSV,inactive
18,LGDALAEVNQDHADSGYRVT,inactive
19,LGDDVFSLAFGDNFKDHKFH,inactive
20,LGESMRRVKVSVQIRIHMGQ,1.11 ± 0.16
21,LGFFCVIFVS,inactive
22,LGGTSNLMFGYMK,inactive
23,LGHGFWQFSYLG,inactive
24,LGIGVKYSTGWCFVIMSSAM,inactive

row,Substance,amyloid nucleation score
1,LGMSYVYTTGLQKQAASQ,inactive
2,LGNIGVELVDRCDRYIYQPD,0.627 ± 0.2
3,LGNSPVHST,inactive
4,LGRCFVFMRTVCFDSA,inactive
5,LGSAGYSSQGLWCLVLRVPL,inactive
6,LGSGEATE,inactive
7,LGVGMQRYMSWRRK,0.504 ± 0.29
8,LGWLLVTNWTSTYAGSLHDG,inactive
9,LGYISFGFPVEDNWVHLACD,inactive
10,LHDNRHYGNLTEAL,inactive
11,LHFVVFAYYKRLMDSQIC,inactive
12,LHGWFLNLLIFYAMRLRSVL,inactive
13,LHLNGAYMAFLIVMSCMHFS,inactive
14,LHVFSECRFIRSLLGPNGIF,inactive
15,LHYMYTYFTTKVLSSRIGGV,inactive
16,LIACSHSRNT,inactive
17,LICAW,inactive
18,LIFGYPVGKFTMMGLTSMWS,inactive
19,LIFPWDLRKGAHHPGLRSCI,inactive
20,LIIGHVFGFHGYVDWDDGTC,inactive
21,LIKVTS,inactive
22,LIKWFSFRWLVTILVIDQTY,inactive
23,LINAYQLLFQNHQKEMMFVT,inactive
24,LINNSEASLIHYIYGRGNVQ,-0.664 ± 1.9

row,Substance,amyloid nucleation score
1,LISCAMGRELTYRSNSRRGR,inactive
2,LITEGYAYFLNWVFRYISYW,inactive
3,LIVAFSLASLGLKFSQCSWA,-0.363 ± 0.96
4,LIVRLDPIFKKIKNK,1.27 ± 0.11
5,LIYANEYA,inactive
6,LIYCYMFMITAVGRACMPCR,inactive
7,LIYYCEHHARLSVLLDESSA,inactive
8,LKCFEMNYQYGRRLNNG,inactive
9,LKCSLLYCRCRPGYQIAGT,inactive
10,LKIWGRFITGETV,inactive
11,LKNGLYYHHYFTFLMAYIHQ,inactive
12,LKPQHSSGGSLSRMIYRPFL,2.18 ± 0.088
13,LKVKLANR,inactive
14,LKVLVD,inactive
15,LKVVSKVLYNSSYPVRYVLR,inactive
16,LLAWFHNCRLRLI,inactive
17,LLCGSCWFYTMGHVSPNKRI,0.862 ± 0.11
18,LLCMWFCKSRLPRCSKCCSR,inactive
19,LLCYWSLA,inactive
20,LLDENGGHYSSIRAISDGGI,inactive
21,LLDFVNGFYCFDFTGTFNIY,0.993 ± 0.15
22,LLDIC,inactive
23,LLDNITLFVWNYMVSSEWKL,inactive
24,LLECNRTMPQLMVWEVFCSV,inactive

row,Substance,amyloid nucleation score
1,LLGLCRVLW,1.31 ± 0.097
2,LLIFYGKLMIWGSGHSDTFR,inactive
3,LLKPTVRCKPRLK,inactive
4,LLKSGYYKGGFVKGAIRFRE,inactive
5,LLLGDVVVMTEAYYIMSPVP,inactive
6,LLLIWWNLALNLKLFFELKV,inactive
7,LLLPWCYFRRKMGRR,inactive
8,LLMFTFHYSPFS,0.483 ± 0.37
9,LLMLCRCKPYFFGFYLCWFR,inactive
10,LLPAI,inactive
11,LLPDRFANPGETWVLNYKLM,inactive
12,LLQICGVYYYPIVSYSPDDF,inactive
13,LLRFP,inactive
14,LLRSCYVSYALNGYSTTFRD,inactive
15,LLRSQASTATGYH,inactive
16,LLSFLTVRLCVFRTYFW,inactive
17,LLVRMILNYKELLVTAILQV,inactive
18,LLVVY,inactive
19,LLWEWYFI,inactive
20,LLWSCCRGRMYDNMFHGKVK,inactive
21,LLYETLLIIMCGKCLQFYIV,inactive
22,LMFDVFLMSTFVFDNL,inactive
23,LMGLCTLI,inactive
24,LMLNGHAVHMSSNSEALVIC,inactive

row,Substance,amyloid nucleation score
1,LMSVLRFQTP,inactive
2,LMVSREFWCSLSKV,inactive
3,LNCLRMSLLC,inactive
4,LNCQYTFHAKCSFLHPSLL,0.928 ± 0.21
5,LNFTCEVGGVYEVDVNSCLL,inactive
6,LNHRIWLTLFGSASRLVKFD,inactive
7,LNIIVDGLAMDVYDEALGSN,inactive
8,LNIQFFINLALAEGFLYNRK,2.97 ± 0.084
9,LNKLTKIVVSHKGLCFELGG,inactive
10,LNLGIFV,inactive
11,LNLQNVVYGTMSEHSASSVD,inactive
12,LNQLGSCY,-0.019 ± 1.1
13,LNQSDRCKVCWYWLGHT,inactive
14,LNQYLYFVRDMGDVMFCLYF,inactive
15,LNRVRSS,-0.108 ± 0.7
16,LNSDIVVNLNIAWSYCIV,1.39 ± 0.068
17,LNSGIS,0.103 ± 0.24
18,LNSTVSGKFMLL,0.078 ± 0.66
19,LNTYQHFCIFMLSYALLSGH,-1.49 ± 2.5
20,LNYGSDLDSIYYSFTL,-0.896 ± 0.96
21,LNYTEASYSLTGHTISISTV,-0.156 ± 1.5
22,LPAHTL,inactive

# From the supplement of paper PMC12042874
